# According to patent US20120195879A1:
# No end group written: not given here.
# B1: aDNP 3B1 antibody (hybridoma) (antibody, human IgG2, kappa, V domains shown)
# VH: QVQLQESGPGLVKPSETLSLTCTVSGGSISSYYWSWIRQPPGKGLEWIGYIYYSGNTNSNPSLKSRVTISVDTSKNQFSLKLSSVTAADTAVYYCARTYYDSSGYYYRAFDIWGQGTMVTVSS
# VL: DIQMTQSPSSLSASEGDRVTITCRASQGIRNDLGWYQQKPGKAPKRLIYAASSLQSGVPLRFSGSGSGTEFTLTISSLQPEDFATYYCLQYNSYPWTFGQGTKVEIKR
# B2: aDNP 3B1 antibody (recombinant, IgG2) (antibody, V domains shown)
# VH: B1 VH
# VL: B1 VL
# B3: aDNP 3A1 antibody (hybridoma) (antibody, human IgG2, kappa, V domains shown)
# VH: QVQLQESGPGLVKPSETLSLTCTVSGGSISHYYWSWIRQPPGKGLGWIGYIYYSGSTNYNPSLKSRVTISVDTSKNQFSLKLTSVTAADTAVYYCARARGDGYNYPDAFDIWGQGTMVTVSS
# VL: DIQMTQSPSSVSASVGDRVTITCRASQGISNWLAWYQRKPGKAPKLLIYAASSLQSGVPSRFSGSGSGTDFTLTISSLQPEDFAAYYCQQASSFPWTFGQGTRVEIKR
# How the values were obtained:
# DNP(31)-BSA (bovine) = DNP(31)-BSA (bovine) (UniProt P02769); experiment: SPR (BIAcore 2000), antibody captured on anti-human IgG Fc surface, DNP-BSA injected; apparent constants
# DNP(3)-BSA (bovine) = experiment: as above
# human Kv1.1 (human) = human Kv1.1 (human) (UniProt Q09470); experiment: cell-based or functional assay
# human Kv1.3 (human) = human Kv1.3 (human) (UniProt P22001); experiment: cell-based or functional assay
# human Kv1.3 (human), sequence (P22001 whole entry): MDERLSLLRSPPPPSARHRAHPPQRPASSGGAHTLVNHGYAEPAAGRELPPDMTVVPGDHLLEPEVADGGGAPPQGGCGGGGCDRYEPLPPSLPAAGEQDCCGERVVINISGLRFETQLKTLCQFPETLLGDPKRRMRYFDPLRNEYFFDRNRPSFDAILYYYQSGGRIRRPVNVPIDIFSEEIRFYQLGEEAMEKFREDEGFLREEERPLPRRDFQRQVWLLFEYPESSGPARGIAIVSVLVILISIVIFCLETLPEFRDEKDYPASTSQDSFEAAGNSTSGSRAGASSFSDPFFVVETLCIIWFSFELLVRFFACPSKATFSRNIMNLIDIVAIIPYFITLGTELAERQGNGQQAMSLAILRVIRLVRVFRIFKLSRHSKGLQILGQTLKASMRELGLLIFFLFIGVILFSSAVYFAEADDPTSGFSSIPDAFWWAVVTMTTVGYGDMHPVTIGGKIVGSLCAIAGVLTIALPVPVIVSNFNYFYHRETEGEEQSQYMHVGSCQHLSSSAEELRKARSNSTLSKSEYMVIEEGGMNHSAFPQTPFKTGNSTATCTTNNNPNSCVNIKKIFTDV
# DNP(3)-BSA (bovine), sequence (P02769 25-607 limits assumed, form in doubt): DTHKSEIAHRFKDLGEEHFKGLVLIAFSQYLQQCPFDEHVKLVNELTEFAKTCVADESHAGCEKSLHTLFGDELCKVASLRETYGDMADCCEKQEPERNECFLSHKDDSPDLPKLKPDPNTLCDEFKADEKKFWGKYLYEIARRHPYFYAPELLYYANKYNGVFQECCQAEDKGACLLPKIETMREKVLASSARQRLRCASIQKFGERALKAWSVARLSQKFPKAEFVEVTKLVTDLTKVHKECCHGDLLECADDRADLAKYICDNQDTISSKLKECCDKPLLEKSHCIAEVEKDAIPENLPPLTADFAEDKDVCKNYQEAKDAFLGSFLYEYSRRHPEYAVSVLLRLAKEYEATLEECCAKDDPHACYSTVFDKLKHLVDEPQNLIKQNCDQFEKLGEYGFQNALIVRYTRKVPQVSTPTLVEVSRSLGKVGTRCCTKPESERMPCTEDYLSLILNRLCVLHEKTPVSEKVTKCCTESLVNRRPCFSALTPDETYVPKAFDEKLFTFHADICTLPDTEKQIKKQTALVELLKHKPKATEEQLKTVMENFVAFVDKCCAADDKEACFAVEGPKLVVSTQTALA
# DNP(31)-BSA (bovine), sequence (P02769 25-607 limits assumed, form in doubt): as above
# human Kv1.1 (human), sequence (Q09470 whole entry): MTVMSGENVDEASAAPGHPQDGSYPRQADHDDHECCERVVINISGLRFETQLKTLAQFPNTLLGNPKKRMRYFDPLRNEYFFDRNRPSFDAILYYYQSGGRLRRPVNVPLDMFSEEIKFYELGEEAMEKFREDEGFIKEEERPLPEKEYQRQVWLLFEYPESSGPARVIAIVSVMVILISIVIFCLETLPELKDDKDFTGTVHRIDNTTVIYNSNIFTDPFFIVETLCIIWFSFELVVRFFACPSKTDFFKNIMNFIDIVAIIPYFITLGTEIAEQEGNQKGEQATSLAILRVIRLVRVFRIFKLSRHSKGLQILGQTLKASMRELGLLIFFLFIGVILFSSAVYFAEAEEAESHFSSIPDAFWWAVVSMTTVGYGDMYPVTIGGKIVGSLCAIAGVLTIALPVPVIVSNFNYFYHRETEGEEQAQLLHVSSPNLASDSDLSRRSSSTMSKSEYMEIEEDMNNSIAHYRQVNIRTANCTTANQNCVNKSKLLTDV
Binder,Kd (DNP(31)-BSA (bovine)) [nM],koff (DNP(31)-BSA (bovine)) [s⁻¹],kon (DNP(31)-BSA (bovine)) [M⁻¹ s⁻¹],Kd (DNP(3)-BSA (bovine)) [nM],koff (DNP(3)-BSA (bovine)) [s⁻¹],kon (DNP(3)-BSA (bovine)) [M⁻¹ s⁻¹],Kv1.1 (PX) IC50 (human Kv1.1 (human)) [nM],Kv1.1/Kv1.3 Selectivity Ratio by PX (human Kv1.3 (human)),Kv1.3 (PX) IC50 (human Kv1.3 (human)) [nM],"Potency Relative to ShK (WB, IL2) (human Kv1.3 (human))"
B1,0.2,5.8e-05,370000,3,0.00036,140000,,,,
B2,0.7,0.00031,420000,,,,,,,
"Fc-GGGGSGGGGSRSCIDTIPKSRCTAFQCKHSMKYRLSFCRKTCGTC (Fc fusion, ends and bridges not checked; also: homodimer via Fc) [Bivalent Fc-L10-ShK[1-35] homodimer]",,,,,,,0.067,4.47,0.015,5.76
"Fc-GGGGSGGGGSSCIDTIPKSRCTAFQCKHSMKYRLSFCRKTCGTC (Fc fusion, ends and bridges not checked; also: homodimer via Fc) [Bivalent Fc-L10-ShK[2-35] homodimer]",,,,,,,0.411,3.54,0.116,8.73
B3,9,0.00031,34000,526,0.00065,1200,,,,
